Tests used:
[1] = system: HeLa Kyoto; assay: solubility change mitosis vs G1/S (difference of NP-40 vs SDS log2 ratios) (log2 ratio difference); higher = more soluble in mitosis
[2] = system: HeLa Kyoto; assay: solubility in G1/S (NP-40 vs SDS abundance) (log2 ratio); higher = more soluble; conditions: cell cycle stage: G1/S
[3] = system: HeLa Kyoto; assay: melting temperature (median over replicates), in situ; higher = more thermally stable
[4] = system: HeLa Kyoto; assay: thermal stability score vs G1/S (z-score of summed log2 fold changes over temperatures); higher = more thermally stable than in G1/S
[5] = cell cycle stage: early G1 (4.5 h after nocodazole release)
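Throughout, for melting temperature (median over replicates), in situ: HeLa Kyoto cells synchronized by double thymidine or nocodazole block, proteins quantified by TMT10plex mass spectrometry, three independent biological replicates.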
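Throughout, for solubility change mitosis vs G1/S (difference of NP-40 vs SDS log2 ratios): synchronized HeLa Kyoto cells (double thymidine block for G1/S, nocodazole release for mitosis), protein amounts in NP-40 versus SDS lysates quantified by mass spectrometry, three biological replicates.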
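Throughout, for solubility in G1/S (NP-40 vs SDS abundance): HeLa Kyoto cells arrested at G1/S by double thymidine block, proteins quantified by TMT10plex mass spectrometry in mild NP-40 versus SDS extracts, three biological replicates.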
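Throughout, for thermal stability score vs G1/S (z-score of summed log2 fold changes over temperatures): synchronized HeLa Kyoto cells, proteins quantified by TMT10plex mass spectrometry, three biological replicates, mitosis taken 0.5 h after nocodazole release, G1/S directly after double thymidine block.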

CDK12, sequence (chain, as listed by the source): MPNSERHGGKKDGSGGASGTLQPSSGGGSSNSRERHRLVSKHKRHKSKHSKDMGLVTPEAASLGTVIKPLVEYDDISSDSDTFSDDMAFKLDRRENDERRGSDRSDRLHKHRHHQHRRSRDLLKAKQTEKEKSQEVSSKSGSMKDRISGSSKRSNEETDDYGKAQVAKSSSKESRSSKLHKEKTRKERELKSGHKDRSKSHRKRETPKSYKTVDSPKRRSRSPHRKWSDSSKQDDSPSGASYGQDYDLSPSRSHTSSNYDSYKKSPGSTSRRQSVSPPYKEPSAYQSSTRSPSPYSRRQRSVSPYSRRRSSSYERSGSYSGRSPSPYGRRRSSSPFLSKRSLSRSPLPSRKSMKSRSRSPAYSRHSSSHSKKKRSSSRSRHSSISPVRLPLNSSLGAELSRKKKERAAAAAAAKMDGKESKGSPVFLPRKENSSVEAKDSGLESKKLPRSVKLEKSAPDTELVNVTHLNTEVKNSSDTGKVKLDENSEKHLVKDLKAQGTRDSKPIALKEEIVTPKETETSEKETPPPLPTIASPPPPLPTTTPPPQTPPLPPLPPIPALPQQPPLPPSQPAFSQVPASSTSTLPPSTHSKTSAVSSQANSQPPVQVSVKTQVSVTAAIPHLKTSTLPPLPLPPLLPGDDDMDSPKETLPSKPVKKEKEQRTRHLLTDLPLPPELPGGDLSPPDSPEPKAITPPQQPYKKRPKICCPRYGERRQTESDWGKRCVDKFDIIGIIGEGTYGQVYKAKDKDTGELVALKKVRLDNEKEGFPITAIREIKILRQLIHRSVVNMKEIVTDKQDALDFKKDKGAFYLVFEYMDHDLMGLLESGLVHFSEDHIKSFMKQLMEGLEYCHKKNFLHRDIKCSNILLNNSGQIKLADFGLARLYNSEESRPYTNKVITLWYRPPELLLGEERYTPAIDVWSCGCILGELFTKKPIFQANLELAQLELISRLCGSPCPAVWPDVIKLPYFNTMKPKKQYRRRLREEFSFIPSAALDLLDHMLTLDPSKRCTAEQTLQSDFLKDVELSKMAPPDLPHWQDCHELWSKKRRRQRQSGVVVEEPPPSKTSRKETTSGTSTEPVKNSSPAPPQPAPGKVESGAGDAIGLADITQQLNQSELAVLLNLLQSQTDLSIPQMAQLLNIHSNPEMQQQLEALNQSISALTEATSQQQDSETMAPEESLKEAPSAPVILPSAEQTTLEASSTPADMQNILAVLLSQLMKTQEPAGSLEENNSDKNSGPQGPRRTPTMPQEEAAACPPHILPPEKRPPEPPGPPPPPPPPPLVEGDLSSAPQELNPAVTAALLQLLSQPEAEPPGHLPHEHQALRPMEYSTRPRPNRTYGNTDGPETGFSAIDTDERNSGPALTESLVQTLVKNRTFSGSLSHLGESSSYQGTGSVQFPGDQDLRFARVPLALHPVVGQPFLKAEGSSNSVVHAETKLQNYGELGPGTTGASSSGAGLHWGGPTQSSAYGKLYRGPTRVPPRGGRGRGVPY

Row | Substance | solubility change mitosis (log2) [1] | solubility in G1/S (log2) [2] | melting temperature ([3]; cell cycle stage: G1/S) | melting temperature ([3]; cell cycle stage: mitosis) | thermal stability score [4, 5] | thermal stability score ([4]; cell cycle stage: mitosis)
1 | MRSARSTALNRGEQRAVRYYSHMKLNMAEEEDYMSDSFINVQEDIRPGLPMLRQIREARRKEEKQQEANLKNRQKSLKEEEQERRDIGLKNALGCENKGFALLQKMGYKSGQALGKSGGGIVEPIPLNIKTGKSGIGHEASLKRKAEEKLESYRKKIHMKNQAEEKAAEQFRMRLKNKQDEMKLEGDLRRSQRACQQLDVQKNIQVPREAWYWLRLEEETEEDEEEKEQDEDEYKSEDLSVLEKLQILTSYLREEHLYCIWCGTAYEDKEDLSSNCPGPTSADHD [GPATCH11] | 0.138 | 0.127 | 52.1 °C | 52.3 °C | -1.77 | -0.0183
2 | MLQTLYDYFWWERLWLPVNLTWADLEDRDGRVYAKASDLYITLPLALLFLIVRYFFELYVATPLAALLNIKEKTRLRAPPNATLEHFYLTSGKQPKQVEVELLSRQSGLSGRQVERWFRRRRNQDRPSLLKKFREASWRFTFYLIAFIAGMAVIVDKPWFYDMKKVWEGYPIQSTIPSQYWYYMIELSFYWSLLFSIASDVKRKDFKEQIIHHVATIILISFSWFANYIRAGTLIMALHDSSDYLLESAKMFNYAGWKNTCNNIFIVFAIVFIITRLVILPFWILHCTLVYPLELYPAFFGYYFFNSMMGVLQLLHIFWAYLILRMAHKFITGKLVEDERSDREETESSEGEEAAAGGGAKSRPLANGHPILNNNHRKND [CERS2] | -0.158 | 0.0784 | 52.7 °C | 52.9 °C | -0.502 | -0.489
3 | MASQLQNRLRSALALVTGAGSGIGRAVSVRLAGEGATVAACDLDRAAAQETVRLLGGPGSKEGPPRGNHAAFQADVSEARAARCLLEQVQACFSRPPSVVVSCAGITQDEFLLHMSEDDWDKVIAVNLKGTFLVTQAAAQALVSNGCRGSIINISSIVGKVGNVGQTNYAASKAGVIGLTQTAARELGRHGIRCNSVLPGFIATPMTQKVPQKVVDKITEMIPMGHLGDPEDVADVVAFLASEDSGYITGTSVEVTGGLFM [HSD17B8] | 0.119 | 0.368 | 55.3 °C | 56.3 °C | -0.337 | -1.5
4 | MCM3AP | 0.655 | -0.867 | 48.7 °C | 49.5 °C | -0.00305 | -0.291
5 | MSHGHSHGGGGCRCAAEREEPPEQRGLAYGLYLRIDLERLQCLNESREGSGRGVFKPWEERTDRSKFVESDADEELLFNIPFTGNVKLKGIIIMGEDDDSHPSEMRLYKNIPQMSFDDTEREPDQTFSLNRDLTGELEYATKISRFSNVYHLSIHISKNFGADTTKVFYIGLRGEWTELRRHEVTICNYEASANPADHRVHQVTPQTHFIS [PITHD1] | -0.108 | 0.0556 | 56.2 °C | 59.5 °C | -1.84 | -2.51
6 | MAATKRKRRGGFAVQAKKPKRNEIDAEPPAKRHATAEEVEEEERDRIPGPVCKGKWKNKERILIFSSRGINFRTRHLMQDLRMLMPHSKADTKMDRKDKLFVINEVCEMKNCNKCIYFEAKKKQDLYMWLSNSPHGPSAKFLVQNIHTLAELKMTGNCLKGSRPLLSFDPAFDELPHYALLKELLIQIFSTPRYHPKSQPFVDHVFTFTILDNRIWFRNFQIIEEDAALVEIGPRFVLNLIKIFQGSFGGPTLYENPHYQSPNMHRRVIRSITAAKYREKQQVKDVQKLRKKEPKTLLPHDPTADVFVTPAEEKPIEIQWVKPEPKVDLKARKKRIYKRQRKMKQRMDSGKTK [BRIX1] | 1.19 | -2.07 | 53.8 °C | 52.9 °C | 0.649 | -2.33
7 | MLRLPTVFRQMRPVSRVLAPHLTRAYAKDVKFGADARALMLQGVDLLADAVAVTMGPKGRTVIIEQSWGSPKVTKDGVTVAKSIDLKDKYKNIGAKLVQDVANNTNEEAGDGTTTATVLARSIAKEGFEKISKGANPVEIRRGVMLAVDAVIAELKKQSKPVTTPEEIAQVATISANGDKEIGNIISDAMKKVGRKGVITVKDGKTLNDELEIIEGMKFDRGYISPYFINTSKGQKCEFQDAYVLLSEKKISSIQSIVPALEIANAHRKPLVIIAEDVDGEALSTLVLNRLKVGLQVVAVKAPGFGDNRKNQLKDMAIATGGAVFGEEGLTLNLEDVQPHDLGKVGEVIVTKDDAMLLKGKGDKAQIEKRIQEIIEQLDVTTSEYEKEKLNERLAKLSDGVAVLKVGGTSDVEVNEKKDRVTDALNATRAAVEEGIVLGGGCALLRCIPALDSLTPANEDQKIGIEIIKRTLKIPAMTIAKNAGVEGSLIVEKIMQSSSEVGYDAMAGDFVNMVEKGIIDPTKVVRTALLDAAGVASLLTTAEVVVTEIPKEEKDPGMGAMGGMGGGMGGGMF [HSPD1] | 0.129 | 0.316 | 55.2 °C | 55 °C | 1.84 | -0.583
8 | MFSFNMFDHPIPRVFQNRFSTQYRCFSVSMLAGPNDRSDVEKGGKIIMPPSALDQLSRLNITYPMLFKLTNKNSDRMTHCGVLEFVADEGICYLPHWMMQNLLLEEGGLVQVESVNLQVATYSKFQPQSPDFLDITNPKAVLENALRNFACLTTGDVIAINYNEKIYELRVMETKPDKAVSIIECDMNVDFDAPLGYKEPERQVQHEESTEGEADHSGYAGELGFRAFSGSGNRLDGKKKGVEPSPSPIKPGDIKRGIPNYEFKLGKITFIRNSRPLVKKVEEDEAGGRFVAFSGEGQSLRKKGRKP [UFD1L] | -0.123 | 0.0333 | 54.2 °C | 54.3 °C | 0.171 | -0.639
9 | MAAMASLGALALLLLSSLSRCSAEACLEPQITPSYYTTSDAVISTETVFIVEISLTCKNRVQNMALYADVGGKQFPVTRGQDVGRYQVSWSLDHKSAHAGTYEVRFFDEESYSLLRKAQRNNEDISIIPPLFTVSVDHRGTWNGPWVSTEVLAAAIGLVIYYLAFSAKSHIQA [SSR4] | 0.0331 | 0.0435 | 55.5 °C | 54.9 °C | 1.62 | -0.139
10 | TTN | 0.167 | -0.476 | 50.4 °C | 51.5 °C | 2.14 | 1.45
11 | MLYLIGLGLGDAKDITVKGLEVVRRCSRVYLEAYTSVLTVGKEALEEFYGRKLVVADREEVEQEADNILKDADISDVAFLVVGDPFGATTHSDLVLRATKLGIPYRVIHNASIMNAVGCCGLQLYKFGETVSIVFWTDTWRPESFFDKVKKNRQNGMHTLCLLDIKVKEQSLENLIKGRKIYEPPRYMSVNQAAQQLLEIVQNQRIRGEEPAVTEETLCVGLARVGADDQKIAAGTLRQMCTVDLGEPLHSLIITGGSIHPMEMEMLSLFSIPENSSESQSINGL [DPH5] | -0.136 | 0.11 | 54.6 °C | 55.3 °C | 1.75 | 1.39
12 | MLLLAAAFLVAFVLLLYMVSPLISPKPLALPGAHVVVTGGSSGIGKCIAIECYKQGAFITLVARNEDKLLQAKKEIEMHSINDKQVVLCISVDVSQDYNQVENVIKQAQEKLGPVDMLVNCAGMAVSGKFEDLEVSTFERLMSINYLGSVYPSRAVITTMKERRVGRIVFVSSQAGQLGLFGFTAYSASKFAIRGLAEALQMEVKPYNVYITVAYPPDTDTPGFAEENRTKPLETRLISETTSVCKPEQVAKQIVKDAIQGNFNSSLGSDGYMLSALTCGMAPVTSITEGLQQVVTMGLFRTIALFYLGSFDSIVRRCMMQREKSENADKTA [KDSR] | -0.0925 | -0.701 | 60 °C | 57.9 °C | -2.49 | -3.38
13 | MESCYNPGLDGIIEYDDFKLNSSIVEPKEPAPETADGPYLVIVEQPKQRGFRFRYGCEGPSHGGLPGASSEKGRKTYPTVKICNYEGPAKIEVDLVTHSDPPRAHAHSLVGKQCSELGICAVSVGPKDMTAQFNNLGVLHVTKKNMMGTMIQKLQRQRLRSRPQGLTEAEQRELEQEAKELKKVMDLSIVRLRFSAFLRASDGSFSLPLKPVISQPIHDSKSPGASNLKISRMDKTAGSVRGGDEVYLLCDKVQKDDIEVRFYEDDENGWQAFGDFSPTDVHKQYAIVFRTPPYHKMKIERPVTVFLQLKRKRGGDVSDSKQFTYYPLVEDKEEVQRKRRKALPTFSQPFGGGSHMGGGSGGAAGGYGGAGGGGSLGFFPSSLAYSPYQSGAGPMGCYPGGGGGAQMAATVPSRDSGEEAAEPSAPSRTPQCEPQAPEMLQRAREYNARLFGLAQRSARALLDYGVTADARALLAGQRHLLTAQDENGDTPLHLAIIHGQTSVIEQIVYVIHHAQDLGVVNLTNHLHQTPLHLAVITGQTSVVSFLLRVGADPALLDRHGDSAMHLALRAGAGAPELLRALLQSGAPAVPQLLHMPDFEGLYPVHLAVRARSPECLDLLVDSGAEVEATERQGGRTALHLATEMEELGLVTHLVTKLRANVNARTFAGNTPLHLAAGLGYPTLTRLLLKAGADIHAENEEPLCPLPSPPTSDSDSDSEGPEKDTRSSFRGHTPLDLTCSTKVKTLLLNAAQNTMEPPLTPPSPAGPGLSLGDTALQNLEQLLDGPEAQGSWAELAERLGLRSLVDTYRQTTSPSGSLLRSYELAGGDLAGLLEALSDMGLEEGVRLLRGPETRDKLPSTAEVKEDSAYGSQSVEQEAEKLGPPPEPPGGLCHGHPQPQVH [NFKB2] | -0.0485 | 0.18 | 47.5 °C | 48.3 °C | 1.06 | 3.27
14 | SRGAP1 | -0.1 | 0.2 | 50.5 °C | 51.2 °C | 0.466 | 0.773
15 | MDFPCLWLGLLLPLVAALDFNYHRQEGMEAFLKTVAQNYSSVTHLHSIGKSVKGRNLWVLVVGRFPKEHRIGIPEFKYVANMHGDETVGRELLLHLIDYLVTSDGKDPEITNLINSTRIHIMPSMNPDGFEAVKKPDCYYSIGRENYNQYDLNRNFPDAFEYNNVSRQPETVAVMKWLKTETFVLSANLHGGALVASYPFDNGVQATGALYSRSLTPDDDVFQYLAHTYASRNPNMKKGDECKNKMNFPNGVTNGYSWYPLQGGMQDYNYIWAQCFEITLELSCCKYPREEKLPSFWNNNKASLIEYIKQVHLGVKGQVFDQNGNPLPNVIVEVQDRKHICPYRTNKYGEYYLLLLPGSYIINVTVPGHDPHITKVIIPEKSQNFSALKKDILLPFQGQLDSIPVSNPSCPMIPLYRNLPDHSAATKPSLFLFLVSLLHIFFK | -0.0348 | 0.0898 | 57.6 °C | 56.3 °C | 2.04 | 3.27
16 | CDK12 | 0.238 | -0.473 | 50.9 °C | 52.5 °C | -0.391 | 0.677
17 | MDTCGVGYVALGEAGPVGNMTVVDSPGQEVLNQLDVKTSSEMTSAEASVEMSLPTPLPGFEDSPDQRRLPPEQESLSRLEQPDLSSEMSKVSKPRASKPGRKRGGRTRKGPKRPQQPNPPSAPLVPGLLDQSNPLSTPMPKKRGRKSKAELLLLKLSKDLDRPESQSPKRPPEDFETPSGERPRRRAAQVALLYLQELAEELSTALPAPVSCPEGPKVSSPTKPKKIRQPAACPGGEEVDGAPRDEDFFLQVEAEDVEESEGPSESSSEPEPVVPRSTPRGSTSGKQKPHCRGMAPNGLPNHIMAPVWKCLHLTKDFREQKHSYWEFAEWIPLAWKWHLLSELEAAPYLPQEEKSPLFSVQREGLPEDGTLYRINRFSSITAHPERWDVSFFTGGPLWALDWCPVPEGAGASQYVALFSSPDMNETHPLSQLHSGPGLLQLWGLGTLQQESCPGNRAHFVYGIACDNGCIWDLKFCPSGAWELPGTPRKAPLLPRLGLLALACSDGKVLLFSLPHPEALLAQQPPDAVKPAIYKVQCVATLQVGSMQATDPSECGQCLSLAWMPTRPHQHLAAGYYNGMVVFWNLPTNSPLQRIRLSDGSLKLYPFQCFLAHDQAVRTLQWCKANSHFLVSAGSDRKIKFWDLRRPYEPINSIKRFLSTELAWLLPYNGVTVAQDNCYASYGLCGIHYIDAGYLGFKAYFTAPRKGTVWSLSGSDWLGTIAAGDISGELIAAILPDMALNPINVKRPVERRFPIYKADLIPYQDSPEGPDHSSASSGVPNPPKARTYTETVNHHYLLFQDTDLGSFHDLLRREPMLRMQEGEGHSQLCLDRLQLEAIHKVRFSPNLDSYGWLVSGGQSGLVRIHFVRGLASPLGHRMQLESRAHFNAMFQPSSPTRRPGFSPTSHRLLPTP [GTF3C2] | 0.119 | -0.18 | 46.5 °C | 49.5 °C | 2.79 | 6.24
